Where two headings read alike, the source gives them in different places.
Assay type: physicochemical
Conditions: about 2.5±1.0 mg/mL conjugate in 10 mM PBS buffer (pH=7.4), 37° C., shaker 100 rpm, average release of free drug per day
[1] = daily ultrafiltration (30 k), free drug by HPLC

Substance: conjugate between HA (Sodium hyaluronate) and [4-[[(3R,4R)-1-(2-cyanoacetyl)-4-methyl-3-piperidyl]-methyl-amino]pyrrolo[2,3-d]pyrimidin-7-yl]methyl 2-aminoacetate [Example 68]
- Release rate (%/day) [1]: 10.81%/day

Substance: conjugate between HA (Sodium hyaluronate) and [4-[[(3R,4R)-1-(2-cyanoacetyl)-4-methyl-3-piperidyl]-methyl-amino]pyrrolo[2,3-d]pyrimidin-7-yl]methyl 4-aminobutanoate [Example 69]
- Release rate (%/day) [1]: 16.47%/day

Substance: conjugate of 2-azaspiro[3.3]heptan-6-yl-4-(((3R,4R)-1-(2-cyanoacetyl)-4-methylpiperidin-3-yl)(methyl)amino)-7H-pyrrolo[2,3-d]pyrimidine-7-carboxylate and HA [Example 73]
- Release rate (%/day) [1]: 1.90%/day

Substance: conjugate of 2-chloroethyl 4-[[(3R,4R)-1-(2-cyanoacetyl)-4-methyl-3-piperidyl]-methyl-amino]pyrrolo[2,3-d]pyrimidine-7-carboxylate and HA [Example 57]
- Release rate (%/day) [1]: 9.28%/day

Substance: conjugate of 3-((3R,4R)-3-((7-(6-amino-2-azaspiro[3.3]heptane-2-carbonyl)-7H-pyrrolo[2,3-d]pyrimidin-4-yl)(methyl)amino)-4-methylpiperidin-1-yl)-3-oxopropanenitrile and HA [Example 81]
- Release rate (%/day) [1]: 0.28%/day

Substance: conjugate of N-(4-(aminomethyl)phenyl)-4-(((3R,4R)-1-(2-cyanoacetyl)-4-methylpiperidin-3-yl)(methyl)amino)-7H-pyrrolo[2,3-d]pyrimidine-7-carbothioamide and HA [Example 23]
- Release rate (%/day) ([…]): 1.01%/day

— patent US20230256106A1, “DRUG DELIVERY SYSTEM FOR LOCALLY DELIVERING THERAPEUTIC AGENTS AND USES THEREOF” (priority 2020, published 2023)
